Test results published in publication PMC12412624, “Engineered Cas12j‐8 is a Versatile Platform for Multiplexed Genome Modulation in Mammalian Cells”.
Where a chain is given by its changes, count along the chain named.

Legend:
[1] = system: T1, dCas12j-8 D523R D523R;D369A;E567A;D658A (bacteriophage (metagenome)); conditions: HEK293T cells; panel 1c (compare within a panel only); scale: mean GFP / mean GFP of wild type, printed, no background subtraction
T1 sequence: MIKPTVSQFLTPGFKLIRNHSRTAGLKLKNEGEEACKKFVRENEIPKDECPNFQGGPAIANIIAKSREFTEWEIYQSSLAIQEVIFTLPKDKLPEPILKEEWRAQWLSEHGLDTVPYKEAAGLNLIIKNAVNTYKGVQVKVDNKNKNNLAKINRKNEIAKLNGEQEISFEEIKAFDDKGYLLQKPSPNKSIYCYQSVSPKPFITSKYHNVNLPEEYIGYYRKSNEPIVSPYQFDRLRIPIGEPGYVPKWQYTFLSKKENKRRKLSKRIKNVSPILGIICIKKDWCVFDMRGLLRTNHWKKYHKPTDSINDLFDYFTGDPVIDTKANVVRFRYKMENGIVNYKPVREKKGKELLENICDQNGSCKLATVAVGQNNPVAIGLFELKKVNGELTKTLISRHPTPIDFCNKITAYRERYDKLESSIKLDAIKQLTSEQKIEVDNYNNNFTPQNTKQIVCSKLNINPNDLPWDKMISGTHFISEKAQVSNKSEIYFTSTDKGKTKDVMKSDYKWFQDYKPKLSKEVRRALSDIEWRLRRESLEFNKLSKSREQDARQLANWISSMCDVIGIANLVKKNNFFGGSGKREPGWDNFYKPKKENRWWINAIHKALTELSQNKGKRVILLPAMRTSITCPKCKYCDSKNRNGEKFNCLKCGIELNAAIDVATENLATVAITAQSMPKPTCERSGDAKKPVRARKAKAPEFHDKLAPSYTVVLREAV

[2] = system: T2, dCas12j-8 E258R+E157R E258R;E157R;D369A;E567A;D658A (bacteriophage (metagenome)); conditions: HEK293T cells; panel 1d (compare within a panel only); scale: mean GFP / mean GFP of wild type, printed, no background subtraction
T2 sequence: T1 sequence with E157R, E258R, R523D

[3] = system: T3, dCas12j-8 E419R E419R;D369A;E567A;D658A (bacteriophage (metagenome)); conditions: HEK293T cells; panel 1c (compare within a panel only); scale: mean GFP / mean GFP of wild type, printed, no background subtraction
T3 sequence: T1 sequence with E419R, R523D

CUUUCAAGACUAAUAGAUUGCUCCUUACGAGGAGACACUCCCUAUCAGUGAUAGAG / TTNACTCCCTATCAGTGATAGAG / CTCTATCACTGATAGGGAGTNAA [TetO]
binding signal [1]: 1.32 | binding signal [2]: 2.16 | binding signal [3]: 0.894
